Experimental data from US20210087288A1.

Key:
[1] = target: Cynomolgus monkey FcRn (cynomolgus monkey) (UniProt Q8SPV9); assay: SPR (BIAcore T200), antibody captured via anti-Fab, FcRn injected, pH 6, steady state
[2] = target: Human FcRn (human) (UniProt P55899); assay: as above
Chain of Human FcRn (human) (P55899 24-297 limits assumed): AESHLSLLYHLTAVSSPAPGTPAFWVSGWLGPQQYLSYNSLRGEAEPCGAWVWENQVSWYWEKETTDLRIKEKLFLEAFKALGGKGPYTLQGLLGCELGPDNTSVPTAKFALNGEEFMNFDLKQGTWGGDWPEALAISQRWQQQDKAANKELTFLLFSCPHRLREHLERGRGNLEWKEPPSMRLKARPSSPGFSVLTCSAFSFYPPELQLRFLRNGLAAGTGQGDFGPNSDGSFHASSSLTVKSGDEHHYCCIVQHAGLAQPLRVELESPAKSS

Chain of Cynomolgus monkey FcRn (cynomolgus monkey) (Q8SPV9 24-297 limits assumed): as the sequence (P55899 24-297 limits assumed) above, with N39D, E44Q, G99S, S189G, S190N, L217M, S269T counted along it

- Kd [1]: 900 nM
- Kd [2]: 700 nM
Substance: Anti-gD.hIgG1 (antibody)
